Results: patent publication US12065673B2, “Method for obtaining human brown/beige adipocytes” (ETABLISSEMENT FRANCAIS DU SANG, priority 2015, dated 2024)

Tests used:
Type in all cases: cell-based, human
[1] = system: adipogenic progenitor cells (pAdSCs); assay: Adipogenic differentiation after BMP induction (QRT-PCR adipocyte markers, Oil red O); conditions: 50 ng/mL BMP for 3 days, recovered at day 10
Description: Total RNA was extracted from ASCs and purified by AllPrep DNA/RNA/Protein kit (Qiagen, Courtaboeuf, France) and dosed by nanodrop (Thermo Fischer, Courtaboeuf, France). RNA purity and integrity was checked using the Experion™ RNA Std Sens Reagents on the Experion automatisated system (Biorad). […] The reverse transcription (RT) was performed on 1 μg RNA by using high capacity cDNA reverse transcription kit (Applied Biosystem ™) and random hexamers in a final volume of 20 μL. The oligonucleotides for each target of interest, designed by using Primer Express software (PerkinElmer Life Sciences, Waltham, Mass.) were used (forward and reverse) and listed in table1. Quantitative PCR was performed on diluted cDNA (equivalent to 25 ng of starting purified RNA) using SSoFast EvaGreen Supermix (Biorad, Marnes-la-Coquette, France) with 500 nM of forward and reverse primers in a total volume of 20 μL on a CFX™ Real Time System (Biorad) following: 95° C., 3 minutes and 40 cycles of denaturation (95° C., 10 seconds) and primers hybridation and amplification (60° C., 30 seconds). […] Melt curves and appropriate No RT control were used to validate amplification specificity. Data were analysed on Bio-Rad CFX manager (threshold=0.2), exported to DataAssist Software v3.0 (Applied Biosystems). […] All real-time PCR reactions for the individual samples were performed in duplicate. […]

standard ASCs = assay: Osteoblastic marker expression after BMP induction; conditions: 50 ng/mL BMP for 3 days
[2] = system: EGM2-derived Bone Marrow-MSCs; assay: BMP7-induced differentiation of BM-MSCs (QRT-PCR)
[3] = system: MSCs cultured in standard conditions; assay: BMP7-induced differentiation of BM-MSCs cultured in standard conditions; conditions: BMP7 treatment
[4] = system: adipogenic progenitor cells (pAdSCs); assay: Brown/beige marker UCP1 by western blotting and immuno-fluorescence; conditions: adipocytes from adipogenic progenitor cells; for UCP1 induction at protein level: western blotting and immuno-fluorescence
Description: Proteins which were extracted by AllPrep DNA/RNA/Protein kit (Qiagen, Courtaboeuf, France) were subjected to the Western blot analysis. Briefly, eluate from DNA and RNA retention columns was precipitated by APP buffer (v/v), centrifuged (10,000 g, 10 min), washed by ethanol 70%, and air dried. Pellets were dissolved in ALO buffer (Qiagen, Courtaboeuf, France), sonicated and protein content was determined by Bicinchoninic Acid method (Pierce). After denaturation (95° C., 5 min), proteins were separated by 12% Tris-glycine-SDS polyacrylamide gel electrophoresis, and subsequently transferred to polyvinylidene difluoride membrane (PVDF). The proteins were detected with Rabbit polyclonal Ab anti-human SOX2 (ab97959; Abcam, Cambridge, UK), anti-human OCT4 (ab19857, Abcam), anti-human NANOG (SC33759; SantaCruz, Dallas, Tex.), anti-human PRDM16, anti-human UCP1, or with Mouse monoclonal Ab anti-human PPARG, anti-βActin and anti-RUNX2 (Abcam) antibodies. […] The Pactin was used as internal positive control (Sigma).
After expansion, ASC- or EGM-2-derived cells were also cultured in chamber slides and after becoming confluent, cells were induced to differentiate into brown/beige adipocytes. After 7 days, the cells were stained with anti-UCP1 antibody (Alpha Diagnostic, San-Antonio, Tex.), and then with Alexa488-labeled goat anti-mouse secondary antibody (Invitrogen). The staining was read by using confocal microscope (Zeiss 510, Zeiss, Oberkochen, Germany).

B1: BMP7: recombinant human BMP7 (RnD system's), pro-beige/brown adipocyte factor (protein, UniProt P18075 293-431, looked up)
Bone morphogenetic protein 7: STGSKQRSQNRSKTPKNQEALRMANVAENSSSDQRQACKKHELYVSFRDLGWQDWIIAPEGYAAYYCEGECAFPLNSYMNATNHAIVQTLVHFINPETVPKPCCAPTQLNAISVLYFDDSSNVILKKYRNMVVRACGCH
adipocyte generation after BMP treatment [1]: generated clearly defined adipocytes
osteoblastic marker expression after BMP treatment (standard ASCs): expressed high levels of osteoblastic markers
expression of adipogenic and brown/beige genes (UCP1, CIDEA) [2]: triggered expressions of adipogenic and UCP1, CIDEA genes
differentiation outcome of MSCs [3]: differentiate into osteoblastic cells solely
UCP1 induction, BMP7 compared with BMP4 [4]: more potent and reliable
UCP1 induction at protein level [4]: strongly induced

B2: Bone Morphogenetic Protein 4 (protein, UniProt P12644 293-408, looked up)
Bone morphogenetic protein 4: SPKHHSQRARKKNKNCRRHSLYVDFSDVGWNDWIVAPPGYQAFYCHGDCPFPLADHLNSTNHAIVQTLVNSVNSSIPKACCVPTELSAISMLYLDEYDKVVLKNYQEMVVEGCGCR
notes: recombinant human Bone Morphogenetic Protein 4 (Miltenyi), adipogenic/browning agent
adipocyte generation after BMP treatment [1]: generated clearly defined adipocytes
osteoblastic marker expression after BMP treatment (standard ASCs): expressed high levels of osteoblastic markers
UCP1 induction at protein level [4]: strongly induced
